The supplement of paper PMC10598134
± gives the standard deviation.

Test: collision cross section of modified peptide (TIMS, N2, iRT-aligned); higher = larger / more extended gas-phase ion
Summary of the method: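 Values are averages of 1–3 technical replicates of the most abundant feature for each charge state. Collision cross section was obtained from the Mason-Schamp equation after 1/K0 calibration with three reference ions and run-wise alignment to the median iRT peptide deviation. Synthetic peptide pools (iRT standard spiked 1:40) were separated on a 120-min nanoflow C18 gradient at 60 °C, analysed on a timsTOF Pro/HT (dda-PASEF, nitrogen, ~2.4 mbar) and identified with MaxQuant.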

[1] = charge state: 2, modification: Methyl (K)
[2] = charge state: 3, modification: Methyl (K)
[3] = charge state: 2, modification: GlyGly (K)
[4] = charge state: 3, modification: GlyGly (K)
[5] = charge state: 2, modification: Butyryl
[6] = charge state: 2, modification: Malonyl
[7] = charge state: 2, modification: Glutarylation
[8] = charge state: 2, modification: Biotin

DKALPLEAEVAPVK [_DK(Methyl (K))ALPLEAEVAPVK_]
collision cross section [1]: 408.8 ± 1.9 Å² | collision cross section [2]: 507.57 ± 2 Å²

HELQANCYEEVKDR [_HELQANCYEEVK(Succinyl)DR_]
collision cross section (charge state: 2, modification: Succinyl): 444.39 Å² | collision cross section (charge state: 3, modification: Succinyl): 483.15 ± 3.9 Å²

LEQVEKELLR [_LEQVEK(GlyGly (K))ELLR_]
collision cross section [3]: 394.68 ± 0.37 Å² | collision cross section [4]: 460.7 ± 1.1 Å²

TVSKVDDFLANEAK [_TVSK(Butyryl)VDDFLANEAK_]
collision cross section [5]: 424.02 ± 0.86 Å²

ITASLCDLKSR [_ITASLCDLK(Malonyl)SR_]
collision cross section [6]: 382.56 Å²

TPNLYIYSKK [_TPNLYIYSK(Crotonyl)K_]
collision cross section (charge state: 2, modification: Crotonyl): 385.36 Å² | collision cross section (charge state: 3, modification: Crotonyl): 432.18 Å²

ISSNFSSIIAEKLR [_ISSNFSSIIAEK(Gluratylation)LR_]
collision cross section [7]: 430.8 ± 0.96 Å²

DYGNSPLHR [_DY(Phospho (Y))GNSPLHR_]
collision cross section (charge state: 2, modification: Phospho (Y)): 345.01 ± 0.066 Å² | collision cross section (charge state: 3, modification: Phospho (Y)): 444.49 Å²

PGGEGPQCEKTTDVK [_PGGEGPQCEK(Gluratylation)TTDVK_]
collision cross section [7]: 428.07 ± 0.56 Å²

GGRGTPGK [_GGRGTP(Hydroxyproline)GK_]
collision cross section (charge state: 2, modification: Hydroxyproline): 291.37 ± 3.4 Å²

TVSKVDDFLANEAK [_TVSK(GlyGly (K))VDDFLANEAK_]
collision cross section [3]: 429.63 ± 1.4 Å² | collision cross section [4]: 494.01 ± 1.9 Å²

SDDESSQKDIK [_SDDESSQK(Methyl (K))DIK_]
collision cross section [1]: 375.97 ± 0.26 Å² | collision cross section [2]: 439.66 ± 3.3 Å²

VGIDTPDIDIHGPEGKLK [_VGIDTPDIDIHGPEGK(Butyryl)LK_]
collision cross section [5]: 496.6 ± 1 Å² | collision cross section (charge state: 3, modification: Butyryl): 542.04 ± 1.1 Å²

VETTVTSLKTK [_VETTVTSLK(Formyl)TK_]
collision cross section (charge state: 2, modification: Formyl): 373.38 ± 0.89 Å²

GSLGAQKLANTCFNEIEK [_GSLGAQK(Methyl (K))LANTCFNEIEK_]
collision cross section [2]: 509.24 Å²

KYEEIDNAPEER [_K(Methyl (K))YEEIDNAPEER_]
collision cross section [1]: 398.83 ± 1.1 Å² | collision cross section [2]: 466.31 ± 3.7 Å²

RGFGFGGFAISAGK [_R(Methyl (R))GFGFGGFAISAGK_]
collision cross section (charge state: 3, modification: Methyl (R)): 488.52 ± 3.4 Å²

SITHSTVGSKGEK [_SITHSTVGSK(Malonyl)GEK_]
collision cross section [6]: 390.69 ± 2.2 Å² | collision cross section (charge state: 3, modification: Malonyl): 440.36 ± 2.7 Å²

SLKLNTAEDAK [_SLK(GlyGly (K))LNTAEDAK_]
collision cross section [3]: 394.52 ± 0.87 Å² | collision cross section [4]: 458.17 ± 2 Å²

LGSPSGKTGTCR [_LGSPSGK(Butyryl)TGTCR_]
collision cross section [5]: 373.24 ± 0.22 Å²

VFSIISSEKELK [_VFSIISSEK(Methyl (K))ELK_]
collision cross section [1]: 411.54 ± 0.9 Å² | collision cross section [2]: 489.57 ± 1.9 Å²

TTEETSKPK [_TTEETSK(Biotin)PK_]
collision cross section [8]: 372.34 Å²

AGQKLIDVNHYAK [_AGQK(hydroxyisobutyryl)LIDVNHYAK_]
collision cross section (charge state: 2, modification: hydroxyisobutyryl): 436.67 ± 0.29 Å² | collision cross section (charge state: 3, modification: hydroxyisobutyryl): 483.82 ± 2.8 Å²

SDDESSQKDIK [_SDDESSQK(Biotin)DIK_]
collision cross section [8]: 393.46 Å²

ITESVAETAQTIKK [_ITESVAETAQTIK(Acetyl (K))K_]
collision cross section (charge state: 2, modification: Acetyl (K)): 418.11 ± 1.3 Å² | collision cross section (charge state: 3, modification: Acetyl (K)): 510.01 ± 1.7 Å²

YEEIVKEVSTYIK [_YEEIVK(Trimethyl (K))EVSTYIK_]
collision cross section (charge state: 2, modification: Trimethyl (K)): 455.74 ± 0.69 Å² | collision cross section (charge state: 3, modification: Trimethyl (K)): 498.32 ± 1.1 Å²

AVAITQSPSSVR [_AVAIT(HexNAc (ST))QSPSSVR_]
collision cross section (charge state: 2, modification: HexNAc (ST)): 390.4 ± 0.13 Å²

SLFFGGKGAPLQR [_SLFFGGK(Dimethyl (K))GAPLQR_]
collision cross section (charge state: 2, modification: Dimethyl (K)): 408.95 ± 0.54 Å² | collision cross section (charge state: 3, modification: Dimethyl (K)): 451.66 ± 1.6 Å²
